Assay results: patent publication EP4790144A1 (Peking Union Medical College Hospital, dated 2026)

T1: 2023-601 project-ABCD1 protein (human, UniProt P33897 650-745)
T1 construct: also called antigen protein ABCD1
T1 sequence: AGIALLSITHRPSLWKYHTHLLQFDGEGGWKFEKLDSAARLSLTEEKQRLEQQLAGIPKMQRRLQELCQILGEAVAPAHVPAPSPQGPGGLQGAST


target: T1, 2023-601 project-ABCD1 protein; assay: ELISA, ABCD1 protein coated at 2 ug/mL, HRP goat anti-mouse secondary antibody

binding result	Binder
binds	07PC09 (antibody, V domains shown) VH: IVMLVESGGGLVKPGGSLKLSCVASGFTFSTYAMSWIRQTPEKRLAWVATISSGGSSTYYSDSVKGRFTISRDNAKNTLYLQMSSLRSEDTAMYYCARHGDWDGSLAYWGQGTQVTVSA VL: DIVMTQSHKLMSTSVGDRVNITCKASQDVNAAVAWYQQQPGQSPKLLFYWASTRHTGVPDRFTGSGSRTDYTLTISGVQAEDLALYYCQQHYSAPRTFGGGTKLEVK
binds	07PC17 (antibody, V domains shown) VH: QLQLVQSGPEVKKPGETVKISCKASGYAFTNYGMNWVKQAPGKDLKWMGWINTYTGDPVYGDDFKGRFAFSLDTSASTAYLQINNLKNEDTATYFCVREPIYYGWVDYWGQGTSVTVSS VL: DIVMTQAAPSVPVTPGESASISCRSSKSLLHRNGNTYLYWFLQRPGQSPQVLIYRMSNLASGVPDRFSGSGSGTAFTLRISRVEAEDVGVYYCMQHLEYPYTFGGGTKLEIK
binds	07PC28 (antibody, V domains shown) VH: QIQLVQSGPELKKPGETVKISCKTSGYTFTDFGMNWVKRAPGQDLKWMGWINTYTGATTYGDEFKGRFAFSLETSASTASLQINNLKNEDSATYFCVREPLYYGWVDYWGQGTSVIVSS VL: DIVMTQVAPSVPVTPGESVSISCRSSKSLLHRNGNTYLYWFLQRPGQSPQVLIYRMSNLASGVPDRFSGSGSGTAFTLRISRVEAEDVGVYYCMQHLEYPYTFGGGTKLEIK
binds	07PC27 (antibody, V domains shown) VH: QLQLVQSGPELKKPGETVKISCKASGYAFTNYGMNWVKQTPGKGLKWMGWINTYSGETTYGDDFKGRFAFSLETSASTAYLQINSLKNEDTATYFCVREPIYYGWVDYWGQGTSVTVSS VL: DIVMTQAAPSVPVTPGESVSISCRSSKSLLHRNGNTYLYWFLQRPGQSPQVLIYRMSNLASGVPDRFSGSGSGTAFTLRISRVEAEDVGVYYCMQHLEYPYTFGGGTKLEIK
binds	07PC03 (antibody, V domains shown) VH: QLQLVQSGPEVKKPGETVKISCKASGYAFTNYGMNWVKQAPGKDLKWMGWIKTYTGDSVYGDDFKGRFAFSLDTSASTAYLQINDLKNEDTATYFCVREPIYYGWVDYWGQGTSVTVSS VL: DIVMTQAAPSVPVTPGESASISCRSSKSLLHRNGNTYLYWFLQRPGQSPQVLIYRMSNLASGVPDRFSGSGSGTAFTLRISRVEAEDVGVYYCMQHLEYPYTFGGGTKLEIK
binds	07TE04 (antibody, V domains shown) VH: QVQLQQSGAELVKPGASVKLSCKASGYTFTRYYLYWVKQRPGQGLEWIGKINPTNGVADLNEKFKYKATLTVDKSSSTTHMQLSSLTSEDSAVYYCTRVYYKYDGFAYWGQGTLVTVSA VL: DIVMTQSLKFMSTSVGDRVSIICKASQDVGTAVAWYQQKPAQSPKLLIYWASTRHTGVPDRFTGSGSGTDFTLTISNVQSEDLTDYFCQQYSSYPLTFGGGTKLEIK
binds	07PC08 (antibody, V domains shown) VH: EVKLEESGGGLVQPGGSMKLSCGASGFTFSDAWMDWVRQSPEKGLEWVAEIRSKAINHATYYAESVKGRFTISRDDSKSSVYLQMNSLRAEDTGIYYCTRRVDWYFDVWGAGTTVTVSS VL: DILLTQSPAILSVSPGERVSFSCRASQSIGTSIYWYQQRTNGSPRLLIKYASESISGIPSRFSGSGSGTDFTLSINSVESEDIADYYCQQSNSWPLTFGAGTKLELK
binds	07TE02 (antibody, V domains shown) VH: DVKLVESGGGLVKPGGSLKLSCAASGLTFSIYAMSWVRQTPEKRLEWVATISAGDIYPYYSDSVKGRFAISRDNAKNTLYLQMSSLRSEDTAIYYCTSITMAMAYWGQGTLVTVSA VL: not shown
binds	07TE08 (antibody, V domains shown) VH: DVKLVESGGGLVKPGGSLKLSCAASGFTFSIYAMSWVRQTPEKRLEWVATISAGDIYPYYSDSVKGRFAISRDNAKNTLFLQMSSLRSEDTAIYYCTSITMAMAYWGQGTLVTVSA VL: not shown
